Source: the supplement of paper PMC9876800

System: peptide library, one residue held at a place counted from the S/T acceptor
Assay: relative phosphorylation of the sub-library (ratio to the mean residue at this position); higher = residue favoured
In short: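 Purified recombinant kinases, either human or orthologue constructs, were incubated in 384-well plates with biotinylated degenerate peptide sub-libraries. Each sub-library fixed one residue at one position around a central Ser/Thr. Peptides at 50 μM and 50 μM ATP spiked with γ-32P-ATP were used for 90 min under kinase-specific conditions, and spots on streptavidin membranes were phosphorimaged and quantified by densitometry. Relative sub-library phosphorylation is expressed as a ratio to the mean residue at that position.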

Sequence of CDK19, construct: Full length, human (Q9BWU1 whole entry, looked up): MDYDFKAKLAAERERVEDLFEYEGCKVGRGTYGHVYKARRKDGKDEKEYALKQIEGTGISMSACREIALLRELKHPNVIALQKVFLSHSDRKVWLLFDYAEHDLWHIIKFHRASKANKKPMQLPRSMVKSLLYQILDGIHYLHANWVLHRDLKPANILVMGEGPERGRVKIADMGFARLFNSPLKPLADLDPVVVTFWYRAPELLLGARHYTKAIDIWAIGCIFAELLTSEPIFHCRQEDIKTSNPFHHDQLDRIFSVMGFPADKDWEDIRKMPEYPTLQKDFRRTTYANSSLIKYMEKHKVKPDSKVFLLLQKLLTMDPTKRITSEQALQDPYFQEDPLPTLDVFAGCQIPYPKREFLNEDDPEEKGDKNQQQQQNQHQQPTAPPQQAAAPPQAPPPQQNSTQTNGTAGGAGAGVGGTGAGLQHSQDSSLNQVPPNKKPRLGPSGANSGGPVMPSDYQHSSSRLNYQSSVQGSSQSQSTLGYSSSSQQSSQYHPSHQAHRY
Sequence of CDKL5, construct: aa1-352, mouse (Q3UTQ8 1-352, looked up): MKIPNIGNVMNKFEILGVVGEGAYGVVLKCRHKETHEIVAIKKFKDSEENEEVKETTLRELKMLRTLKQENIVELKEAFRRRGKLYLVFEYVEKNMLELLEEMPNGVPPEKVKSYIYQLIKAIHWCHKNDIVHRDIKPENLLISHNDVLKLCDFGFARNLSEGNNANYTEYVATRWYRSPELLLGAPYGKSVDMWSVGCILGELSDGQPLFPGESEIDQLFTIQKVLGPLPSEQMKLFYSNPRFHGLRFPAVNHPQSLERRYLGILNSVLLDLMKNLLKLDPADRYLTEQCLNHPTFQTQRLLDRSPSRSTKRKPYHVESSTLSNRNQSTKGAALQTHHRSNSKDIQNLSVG
Sequence of CDK17, construct: Full length, human (Q00537 whole entry, looked up): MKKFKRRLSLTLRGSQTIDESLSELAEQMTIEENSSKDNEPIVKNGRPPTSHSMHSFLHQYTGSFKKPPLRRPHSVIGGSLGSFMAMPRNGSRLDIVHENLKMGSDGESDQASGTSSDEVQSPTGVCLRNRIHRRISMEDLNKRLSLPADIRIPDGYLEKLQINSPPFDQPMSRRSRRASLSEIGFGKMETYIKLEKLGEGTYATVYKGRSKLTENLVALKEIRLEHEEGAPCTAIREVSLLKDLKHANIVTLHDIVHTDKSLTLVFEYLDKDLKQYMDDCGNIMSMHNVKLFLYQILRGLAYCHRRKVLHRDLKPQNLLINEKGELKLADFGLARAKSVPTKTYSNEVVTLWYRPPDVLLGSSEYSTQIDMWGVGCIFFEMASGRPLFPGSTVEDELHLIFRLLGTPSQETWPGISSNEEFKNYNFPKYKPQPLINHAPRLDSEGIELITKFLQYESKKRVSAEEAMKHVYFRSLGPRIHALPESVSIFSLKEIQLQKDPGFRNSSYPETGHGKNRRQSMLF

CDK17, construct: Full length, human (from UniProt Q00537)
relative phosphorylation
Conditions	at +1	at +2	at +3	at +4	at -1	at -2	at -3	at -4	at -5
A fixed	0.203	0.683	0.739	1	0.979	1.25	0.977	0.99	1.07
D fixed	0.116	0.603	0.323	0.54	0.654	0.496	0.806	0.95	0.96
E fixed	0.109	0.412	0.294	0.427	0.49	0.585	0.902	1.02	0.845
F fixed	0.152	0.697	0.959	0.828	0.644	0.742	0.666	0.802	0.856
G fixed	0.781	0.865	0.862	1.86	1.93	0.898	1.62	1.19	1.01
H fixed	0.152	1.16	0.66	1.14	0.801	0.831	0.907	0.98	1.18
I fixed	0.157	0.826	1.48	0.823	0.251	0.872	0.68	0.836	0.806
K fixed	0.236	2.09	0.904	1.32	1.61	0.701	0.945	1.34	1.49
L fixed	0.17	1.03	2.01	0.797	0.689	0.962	0.675	0.779	0.98
M fixed	0.17	1.02	1.99	0.99	1.06	1.13	0.881	0.822	0.861
N fixed	0.174	1.15	0.854	0.987	1.03	1	1.21	1.37	1.02
P fixed	13.6	0.758	1.66	0.889	1.69	3.2	2.12	1.41	1.06
Q fixed	0.195	1	0.962	0.962	1.28	0.893	1.03	0.933	0.834
R fixed	0.191	1.92	0.783	1.52	1.51	0.875	1.13	0.924	1.01
V fixed	0.222	0.863	1.07	0.77	0.403	0.859	0.782	0.605	0.698
W fixed	0.181	0.879	0.791	1.09	0.999	0.887	0.855	1.14	1.19
Y fixed	0.149	1.05	0.65	1.06	0.97	0.824	0.818	0.907	1.12
pThr fixed	0.514	0.699	0.939	0.451	0.438	0.909	1.06	1.04	0.832
pTyr fixed	0.707	0.491	0.903	0.492	0.452	0.788	0.883	0.7	0.88

CDK19, construct: Full length, human (from UniProt Q9BWU1)
relative phosphorylation
Conditions	at +1	at +2	at +3	at +4	at -1	at -2	at -3	at -4	at -5
A fixed	0.247	1.28	1.17	0.978	1.14	1.69	1.08	1.05	0.905
D fixed	0.112	0.577	0.659	1.05	0.698	0.518	0.695	0.93	1.26
E fixed	0.114	0.592	0.564	0.915	0.416	0.463	0.881	1.1	1.23
F fixed	0.193	0.915	0.784	0.971	0.947	0.465	1.18	1.22	1.42
G fixed	0.865	1.39	1.39	1.15	1.64	0.829	1.27	1.07	1.02
H fixed	0.295	1.02	1.1	0.988	0.929	0.589	0.958	0.997	1.11
I fixed	0.378	0.721	0.633	0.857	0.238	0.935	0.602	1.01	0.863
K fixed	0.198	1.08	0.651	0.736	0.93	0.276	0.61	0.73	0.702
L fixed	0.271	1.09	0.685	0.948	0.948	1.09	0.67	1.04	0.878
M fixed	0.32	1.22	1.1	1.1	1.5	0.922	1.39	1.07	0.895
N fixed	0.371	0.959	1.33	1.02	0.918	0.658	1.26	0.741	0.879
P fixed	11.8	0.913	2.42	1.28	1.61	5.16	1.39	0.878	0.771
Q fixed	0.314	1.1	0.892	1.01	1	0.846	1.16	0.881	0.801
R fixed	0.186	1.51	0.934	0.919	1.53	0.393	0.674	0.875	0.844
V fixed	0.92	0.725	0.903	0.945	0.425	1.25	0.583	0.786	0.685
W fixed	0.248	1	0.881	1.24	1.01	0.498	1.45	1.34	1.08
Y fixed	0.196	0.925	0.918	0.888	1.11	0.423	1.15	1.28	1.65
pThr fixed	0.381	0.481	0.581	0.829	0.318	0.651	0.695	0.915	0.914
pTyr fixed	0.344	0.83	0.733	0.902	0.505	0.427	0.718	1.03	1.12

CDKL5, construct: aa1-352, mouse (from UniProt Q3UTQ8)
relative phosphorylation
Conditions	at +1	at +2	at +3	at +4	at -1	at -2	at -3	at -4	at -5
A fixed	4.03	0.798	1.01	0.928	1.15	0.826	0.761	1.03	1.12
D fixed	0.548	0.548	0.634	0.701	0.779	0.559	0.412	0.625	0.556
E fixed	0.528	0.56	0.567	0.593	0.581	0.543	0.427	0.652	0.543
F fixed	0.588	0.903	1.03	1.02	0.782	0.665	0.49	0.866	1.07
G fixed	1.51	0.936	1.03	1.07	1.22	1.06	0.65	1.04	1.24
H fixed	0.679	1.32	0.979	1.19	0.916	0.7	0.61	0.928	1.17
I fixed	0.584	0.853	0.914	0.915	0.812	0.681	0.559	0.9	0.958
K fixed	0.861	1.77	1.42	1.25	1.49	0.976	0.826	1.46	1.24
L fixed	0.564	0.851	0.896	0.925	1.04	0.817	0.516	0.938	0.974
M fixed	0.6	0.832	0.876	0.94	1.08	0.718	0.531	0.997	0.972
N fixed	0.592	0.924	0.895	1.01	0.737	0.575	0.6	0.861	0.8
P fixed	2.33	0.697	1.07	1.09	1.11	5.09	0.758	1.1	0.909
Q fixed	0.704	0.903	0.926	0.909	1.1	0.693	0.658	1.03	0.854
R fixed	1.06	2.48	1.71	1.51	1.49	1.05	7.65	1.9	1.65
V fixed	0.624	0.757	1.01	0.798	0.885	0.715	0.538	0.977	0.88
W fixed	0.631	0.828	0.852	1.17	1.04	0.691	0.515	0.847	1.07
Y fixed	0.563	1.04	1.19	0.987	0.794	0.645	0.499	0.844	0.994
pThr fixed	0.581	0.54	0.682	0.65	0.567	0.588	0.456	0.785	0.702
pTyr fixed	0.522	0.61	0.636	0.626	0.53	0.534	0.458	0.652	0.594
